Assay results published in patent US20150004190A1.
pKd: −log10 of the molar value. Values joined by “and” are separate entries in the source; they are usually repeats but may differ in a detail not shown here. Equal values may be shown once. Read-outs that look alike come from different tables or passages of the source.

Legend:
[1] = target: P1-PE (HIV-1 clade B HXB2) (UniProt P04578)
[2] = target: P1 (aa 630-685) clade B HXB2 HIV-1 (HIV-1 clade B HXB2) (UniProt P04578); test: ELISA on coated peptide (FIG. 1)
[3] = target: P1 (aa 630-685) clade B HXB2 HIV-1 (HIV-1 clade B HXB2) (UniProt P04578); test: ELISA, P1 without lipid, nonlinear regression
[4] = target: P1-PE (HIV-1 clade B HXB2) (UniProt P04578); test: ELISA, P1-PE in raft liposomes R2 (P1:lipids 1 for 20), nonlinear regression
[5] = target: P1-PE (HIV-1 clade B HXB2) (UniProt P04578); test: ELISA, P1-PE in raft liposomes R1 (P1:lipids 1 for 100), nonlinear regression
[6] = target: P1-PE (HIV-1 clade B HXB2) (UniProt P04578); test: ELISA, P1-PE in viral liposomes V2 (P1:lipids 1 for 20), nonlinear regression
[7] = target: P1-PE (HIV-1 clade B HXB2) (UniProt P04578); test: ELISA, P1-PE in viral liposomes V1 (P1:lipids 1 for 100), nonlinear regression

Substance	pKd [1]	antibody concentration of equivalent binding activity [2] [nM]	pKd [3]	pKd [4]	pKd [5]	pKd [6]	pKd [7]
2F5 IgG1 (antibody)	8.88 and 9.16	6.25	8.13	9.29	9.30	9.39	9.51
2F5 IgA2 (antibody)	9.82 and 9.68	0.05	9.70	10.21	10.30	10.62	10.62
